# Experimental data reported in US6677433B2 (The Regents of the University of California, priority 2001, dated 2004).
# T1: NADP-Malate Dehydrogenase (Zea mays, UniProt P15719)
# T1 construct: NADP-malate dehydrogenase (NADP-MDH) and fructose-1,6-bisphosphatase (FBPase) were purified from leaves of corn; from tissue; host or cells: corn leaves
# T1 sequence (P15719 whole entry, looked up): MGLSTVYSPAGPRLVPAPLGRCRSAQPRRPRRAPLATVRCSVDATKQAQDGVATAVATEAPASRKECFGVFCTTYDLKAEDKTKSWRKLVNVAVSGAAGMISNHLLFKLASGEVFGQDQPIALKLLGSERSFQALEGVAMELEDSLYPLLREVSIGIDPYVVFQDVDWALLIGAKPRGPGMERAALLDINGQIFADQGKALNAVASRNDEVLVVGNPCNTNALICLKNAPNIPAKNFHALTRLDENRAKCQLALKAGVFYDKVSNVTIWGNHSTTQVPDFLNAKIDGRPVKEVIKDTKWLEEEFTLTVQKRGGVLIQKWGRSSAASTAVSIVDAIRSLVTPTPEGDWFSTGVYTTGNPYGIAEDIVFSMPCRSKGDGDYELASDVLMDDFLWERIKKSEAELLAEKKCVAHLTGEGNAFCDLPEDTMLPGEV
# T2: Fructose Bisphosphatase (Spinacia oleracea, UniProt P22418)
# T2 construct: fructose-1,6-bisphosphatase (FBPase) were purified from leaves of corn (Jacquot, J.-P. et al. (1981), Plant Physiol. 68:300-304) and spinach; from tissue; host or cells: spinach leaves
# T2 sequence (P22418 58-415): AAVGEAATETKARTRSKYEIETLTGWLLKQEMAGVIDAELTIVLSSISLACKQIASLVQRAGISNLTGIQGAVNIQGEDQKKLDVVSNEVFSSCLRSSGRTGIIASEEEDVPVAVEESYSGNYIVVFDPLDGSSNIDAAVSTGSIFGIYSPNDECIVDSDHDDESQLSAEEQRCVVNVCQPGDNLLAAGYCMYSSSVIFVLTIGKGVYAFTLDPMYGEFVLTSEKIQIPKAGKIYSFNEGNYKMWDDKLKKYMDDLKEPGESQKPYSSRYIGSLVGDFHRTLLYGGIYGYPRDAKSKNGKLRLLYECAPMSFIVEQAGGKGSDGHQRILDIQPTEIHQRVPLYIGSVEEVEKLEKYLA
# T3: glutaredoxin (Escherichia coli, UniProt P68688)
# T3 construct: gift of Professor A. Holmgren
# T3 sequence (P68688 1-85): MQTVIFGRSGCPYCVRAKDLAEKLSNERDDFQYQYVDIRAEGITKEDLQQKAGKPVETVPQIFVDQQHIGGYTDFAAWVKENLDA
# Key:
# [1] = biological target: T1, NADP-Malate Dehydrogenase; assay: Activation of chloroplast NADP-malate dehydrogenase by thioredoxin-reduced proteins; assay type: biochemical, corn; conditions: 20 μg protein; DTT→Thioredoxin→Indicated Protein→Target Enzyme
# Procedure: (§1) The NADP-MDH, FBPase, NTR and Thioredoxin h assay methods were according to Florencio, F. J. et al. (1988), Arch. Biochem. Biophys. 266:496-507 with slight modifications as indicated. For enzyme activation assays, the preincubation time was 20 min unless specified otherwise.
# (§2) The capability to replace a specific thioredoxin in the activation of chloroplast enzymes is one test for the ability of thiol groups of a given protein to undergo reversible redox change. […] A case in point is purothionin which, when reduced by thioredoxin h activates chloroplast FBPase (Wada, K. et al. (1981), FEBS Lett. 124:237-240, and Johnson, T. C. et al. (1987), Plant Physiol. 85:446-451). The FBPase, whose physiological activator is thioredoxin f, is unaffected by thioredoxin h. In this Example, the ability of cystine-rich proteins to activate FBPase as well as NADP-MDH was tested as set forth above. […]
# (§3) The Wada et al., 1981 protocol was used for assaying NADP-malate dehydrogenase and fructose 1,6 bisphosphatase in the presence of thioredoxin and 2S protein. […] The 2S protein was monitored during purification by mBBr/SDS-polyacrylamide gel electrophoresis following its reduction by dithiothreitol and E. coli thioredoxin (Crawford et al., 1989; Kobrehel et al., 1991).
# [2] = biological target: T2, Fructose Bisphosphatase; assay: Activation of chloroplast fructose bisphosphatase by thioredoxin-reduced proteins; assay type: biochemical, spinach; conditions: standard DTT assay, 1 μg E. coli thioredoxin, 20 μg protein; corrected for thioredoxin alone
# Procedure: as §1, §2, §3
# [3] = biological target: T3, glutaredoxin; assay: Reduction by glutaredoxin relative to thioredoxin (mBBr/SDS-PAGE, densitometric scanning); assay type: biochemical; conditions: glutathione reductase, NADPH
# Procedure: Direct reduction of the proteins under study was determined by a modification of the method of Crawford et al. (Crawford, N. A. et al. (1989), Arch. Biochem. Biophys. 271:223-239). The reaction was carried out in 100 mM potassium phosphate buffer, pH 7.1, containing 10 mM EDTA and 16% glycerol in a final volume of 0.1 ml. As indicated, 0.7 μg (0.1 μM) NTR and 1 μg (0.8 μM) thioredoxin (both routinely from E. coli were added to 70 μl of the buffer solution containing 1 mM NADPH and 10 μg (2 to 17 μM) of target protein. When thioredoxin was reduced by dithiothreitol (DTT, 0.5 mM), NADPH and NTR were omitted. Assays with reduced glutathione were performed similarly, but at a final concentration of 1 mM. After incubation for 20 min, 100 nmoles of mBBr were added and the reaction was continued for another 15 min. To stop the reaction and derivatize excess mBBr, 10 μl of 10% SDS and 10 μl of 100 mM β-mercaptoethanol were added and the samples were then applied to the gels. […]
# This ability was tested, using glutaredoxin from E. coli and the seed proteins currently under study. Reduction activity was monitored by the mBBr/SDS polyacrylamide gel electrophoresis procedure coupled with densitometric scanning.
molecule,measurement,setting,value
"Soybean Kunitz: Kunitz soybean trypsin inhibitor (protein, UniProt P01070 25-205, looked up) Trypsin inhibitor A: DFVLDNEGNPLENGGTYYILSDITAFGGIRAAPTGNERCPLTVVQSRNELDKGIGTIISSPYRIRFIAEGHPLSLKFDSFAVIMLCVGIPTEWSVVEDLPEGPAVKIGENKDAMDGWFRLERVSDDEFNNYKLVFCPQQAEDDKCGDIGISIDHDDGTRRLVVSKNKPLVVQFQKLDKESL","ACTIVITY, NADP-MDH",[1],2 nkat/mg
same,"ACTIVITY, FBPase",[2],0 nkat/mg
same,percentage reduction relative to E. coli thioredoxin,[3],ineffective
